Laboratory results: the nanobody polyreactivity screen of Harvey et al. (2022)

test: yeast display, Sf9 membrane polyspecificity reagent, FACS + sequencing; frameworks hold sequencing errors
In short: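 A synthetic nanobody library was expressed on Saccharomyces cerevisiae BJ5465 by galactose induction for 36–48 hours. The library was stained for 1 hour at 4 °C with 10% biotinylated, detergent-solubilized Sf9 membrane reagent and enriched with streptavidin microbeads before FACS. Low and high (top ~1%) gates were set on anti-HA fluorescence for expression and streptavidin fluorescence for reagent binding, and each polyreactivity label reflects the gate of origin.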

| Sequence | polyreactivity (PSR sort gate) |
| --- | --- |
| QVQLVESGGGLVQAGGSLRLSCAASGSTFLTYAMGWYRQAPGKERELVAGISYSTGSTYYADSVKGRFTISRDNAKNTVYLQMHSLKPEDTAVYYCAADEWDGLRYYYYFNYEYWGQGTQVTVSS | low polyreactivity |
| QVQLVESGGGLQQAGGSLRLSCDASGITFRQYTMGWCRQAPGKERELVAAITSSGRTYYADSVKGRFTISRDNAKNTVYLHMNSLKPEDTAVYYCAAETYYFGYGYWGQGTQVTVSS | high polyreactivity |
| QVQLVESGGGLVQAGGSLRLSCAASGFIFGYYTMGWYRQAPGKERELVAAISSRGGSTYYAYSVKGRFTISRDNAKNTVYLQINSLKPEDTAVYYCAKRSTYTGSWWERGYCGQGTQVTVSS | high polyreactivity |
| QVQLVESGGGLVQAGCSLRLSWAASGRIIKYNAMGWYRQAPGKERELVAVITSGGSTYYAYSVKGRFTISRDNAKNTVYLQMNSLKPEDTAVYYCAAGFGDGPGNGYYSRYSWDDDYWGQGTQVTVSS | low polyreactivity |
| QVQLVESGGGLVQAGGSLRLSCAASGLTFNVYAMGWYRPAPGKERELVASITKRGGSTYYADSVKGRFTISRDNAKNTVYLQMNSLKPEDTAVYYCAADGLTGSKYRATGYYWGQGTQVTVSS | high polyreactivity |
| QVQLVESGGGLVQAGGSLRLSCAASGSIFVTNAMGWYRQAPGKERELVAAISWRGGSTYYADSVKGRFTISRDNAKNTVYLQMNSLKPEDTGVYDCNTYHPYWGSGFDYWGLGTQVTVSS | low polyreactivity |
| QVQLVESGGVLVQAGGSLRLSCAASGNTFWLNAMGWYRQSPGKERELVDAITYTDGSTYADSVKGRFTISRDNAKNTVYLQMNSLKPEDTAVYYCAVANPSPYEWIAYYYWGQGTQVTVSS | low polyreactivity |
| QVQLVESGGGLVQAGGSLRLSCAASGFTFYLYAMGWYRQAPGKERELVAAINSGSSTYYADSVKGRFTISRDNAKNTVYLQMNSLKPEDTAVYYCATDTDRTMDYWGQGTQVTVSS | low polyreactivity |
| QVQLVESGGGLVQAGGSLRLSCAASGIIFSIYTMGRYRQAPGKERELVAAINRSGSRTYYADSVKGRFTISRDNAKNTVYLQMNSLKPEDTAVYYCAAGTGSRDYYWGQGTQVTVSS | high polyreactivity |
| QVQLVESGGGLVQAGGSLRLICDASGSTFYRYAMGWYRQAPGKERELVAAISRSGGRTYYADSVKGRFTISRDNAKNTVYLQMNSLKPEDTADYYCAADVGPKQDATHDYWGQGTQLTVSS | high polyreactivity |
| QDQLVESGGGLVQAGGRLRLSCAASGFIFYSYVMGRYRQAPGKERELVASIRSRGGSTYYADSVKGRFTISRDNAKNTVYLQMNSLKPEDTAVYYCAADLYLSPSWYKYDYWGQGTQVTVSS | low polyreactivity |
| QVQLVESGGGLVQAGGSLRLSCAASGRTSGFNTMGWYRQAPGKERELVAAISFSGGSTYYADSVKGRFTISRDNAKNTVYLQMNSLKPEDTAVYYCNALYRYLYRSGDYWGLGTQVTVSS | low polyreactivity |
| QVQLVESGGGLVQAGGSLRLSCAASGRTFIYNVMGWYRQAPGKERELVASIRSSGGSTYYADSVKGRFTISRDNAKNSVYLQMNSLKPEDTAVYYCAADRSPGIRCWPGDYWGQGTQVTVSS | low polyreactivity |
| QVQLVESGGGLVQAGGSLRLSCAASGSTFPYNAMGWYRQAPGKERELVAAISWSGGRTYYADSVKGRFTISRDNAKNTVYLQMNSLKPEDTAVDYCAKAVKQYGFYYWGQGTQVTVSS | high polyreactivity |
| QVQLVESGGGLVQAGGSLRLSCAASGITFTGYAMVWYRQAPGKERELVAAIRGGGNTYYADSVKGRFTISRDNAKNTVYLQMNSLKPEDTAVYYCAADDIAHQYFVSTVDVGMDYWGQGTQVTVSS | low polyreactivity |
| QFQLVESGGGLVQAGGSLRLSCASSGSIIGIYAMGWYRQAPGKERELVAAISWSGGSTYYADSVKGRFTISRDNAKNTVYLQMNSLKPEDTAVYYCAARGHYQYYWGQGTQVTVSS | high polyreactivity |
| QVQLVESGVGLVQAGGSLRLSCAASGSTFQWYAMGWYIQAPGKERELVAAINKSGGTTYYADSVKGRFTISRDNAKNTVYLLMNSLKPEDTAVYYCATDTPVVYQPGNMDYWGQGTQVTVSS | low polyreactivity |
| QVQLVDSGGGVVQEGGSLRLSCAASGIISLFNVMGWYRQAPGKERELVASITGRGGSTFYADSVKGRFTISRDNAKNTVYLQMNSLQPEESGVYYCATDTGDTYPVNGLYDYWGHGTQVTVSS | low polyreactivity |
| QVQLVESGGGLVQAGGSLRLSCAASGSIFGYYTMGWYRQAPGKERELVARISSSGARTYYADSVKGRFTISRDNAKNTVYLQMNSLKPEDTAVYYCNAQFGYRTIYYISQYYEYGYWGQGTQVTVSS | high polyreactivity |
| QVQLVESGGGLVQAGGSLRLSCAASGFTFVYYAMGWYRQAPGTERELVAAISQSGSSTYYADSVKGRFTISRDNAKNTVYLQMNTLKPEDTAVYYCAAQEFQKRLGGSWWRYDYWGQGTQVTVSS | high polyreactivity |

| Sequence | polyreactivity (PSR sort gate) |
| --- | --- |
| QVQVVESGGGLVQAGGSLRLSCAASGSIFPFYVMGWYRQAPGKEREFVATISSRGGSTYYADSVKGRFTISRDNAKNTVYLQMNSLKPEDTAVYYCAAGWYRNDWGQRLHTYYYWGQGTQVTVSS | high polyreactivity |
| QVQLVESWGGLVQAGGSLRLSCAASGIIFQNYDMGWYRQARGKERELVAAITGSGGSTYYADSVKGRFTISRDNAKNTVYLQMNSLKPEDTAVYYCNAVWEYYGKSDYWGQGTQVTVSS | low polyreactivity |
| QVQLVESVGGLVQAGGSLRLSCAASGIILLYYALGWYRQAPGKERELVAAITTSGGRTYYADSVKGRFTISRDNAKNTVYLQMNSLKPEDTAVYYCAASTQGTYYPYKRYDYWGQGTQVTVSS | high polyreactivity |
| QVQLVESGGGLDQAGGSLRLSCAASGITFTVNARGWYREAPGKERELVAGITWSGGSTYYADSVKGRFTISRDNAKNTVYLQMNSLKPEDTAVYYCNADSDGFWSIYDYWGQGTQVTVSS | low polyreactivity |
| QVQLVESGGGIVQAGGSLRLSFAASGSIFEGNALGWYRQEPGKEMEFVAAITKRGGSTYYADSVKGRFTISRDNAKNTVYLQMIWLKPEDTAGYYCAADRSYPRAGRYNYWGQGTQVTVSS | low polyreactivity |
| QVQLVESGGGLVQAGGSLRLSCAASGSIFYPYAMGWYRQAPGKERELVARIRGTGGRTYYADSVKGRFTISRDNAKNTVYLQMNSLKPEDTAVYYCNAQTSGRVGSQYYSYYGSWGQGTQLTVSS | high polyreactivity |
| QVQLVESGGGLVQARGSLRLSCAASGRIFDRYDMGCYRQAPGKEREFVASITWSDGSTYYADSVKGRFTISRDYAKNTVYLQMNSLKPEDTAVYYCNADYVYYYIPVVYEYDYWGQGTQVTVSS | high polyreactivity |
| QVQLVEPGGGLVQAGGSLRLSCAASGSIFAYYVMGWYRQAPGKERELVAGISFSGGTTYYADSVNGRFTISRDNAKNTVYLQMNSLKPEDTAVYYCNADPDHREFDYWGQGTQVTVSS | low polyreactivity |
| QVQLVESGGGLVQAGGILRLSCAASGSIFRVYAMGWYRQAPGKVRELVASISRRGGSTYYADSVKGRFTISRDNAKNTVYLQMNSLKPEDTAVYYCAATTYSGFDYCGQGTQVTVSS | high polyreactivity |
| QVQLVESGGGLVQAGGSLLLSCAASASTISYKAMGWYRHAPGQETELVAAIDRSVSTNYADSVKGRFTISRDNAKNTVYLQMNSLKPEDTAVYYCNARHPTDDIVIYDYWGQGTQVTVSS | low polyreactivity |
| QVQLVESGGGLVQAGGSLRLSCAASGIIFARNAMGWYRQAPGKERELVATISRNGGRTYYADSVKGRFTISRDNAKNTVYLQMNSLKPEDTAVYYCARPYYGSWHSYGVDYWGQGTQVTVSS | high polyreactivity |
| QVQLVESGGGLVQAGGSLRLSCAASGFIFYRYPMGWYRQAPGKERELVAAISYSGGSTYYADSVKGRFTISRDNAKNTVYLQMNSLKQEDTAVYYCARRQVYKFRRYDYWGQGTQVTVSS | high polyreactivity |
| QVQLVESGAGLVQAGGSLRLSCAASGSTFSYYAMGWSRQAPGKERELVAAITSSGGSTYYADSVKGRFTISRDNAKNTVYLQMNSLKQEDTAVYYCNTAYHVPYDYWGQGTQVTVSS | low polyreactivity |
| QVQLVESGGGLVQAGGRLRLSCAASGIIFFWYVRGWYRQAPGKERELVAAINRGGITNYADSVKGRFTISRDNAKNTVYLQMNSLKTEDTAVYYCNKDWKTESWFNRYGGYGIEDDYWGQGTQVTVSS | high polyreactivity |
| QVHLVESGGGLDQAGGSLRLSCAASGSIFPHNAMVWYIQAPGKERELVASITSRCGITYYADSVKGRFTISRDNAKNTVYLQMNRLKPEDTAVYYCAARNNVEYLTIYKPYSFGSDSWGQGTQVTVSS | low polyreactivity |
| QVQLVESGGGLVQAGGSLRLSCAASGFTFGWYAMGWYRQAPGKERELVAAISRRGGTTYYADSVKGRFTISRDNAKNTVYLQMNSLKPEDTAVYYCAATSYTYVLSPYRGDYWGQGTQVTVSS | high polyreactivity |
| QVQLVESGGGLVQAGGSLRLSCAASGSIFYVNVMGWYRQAPGKERELVATISSGDTNYADSVKGRFTISRDNAKNTVYLQMNSLKPEDTAVYYCARRRTIPYTLVDYDSWGQGTQVTVSS | low polyreactivity |
| QVQLVESGGGLLQAGGSHRLSCAASGRIFPAYAMGWYRQAPGKERELVASNRRGGITYADSVKGRFTISRDNAKNTVYLQMNSLKPEDTAVYYCNADYRGWGYHMDYWGQGTQVTVSS | low polyreactivity |
| QVQLVESGGGVVQAGGSLRLSCAASGITFNGNAMGWYRQAPGKERELVATISRSDGRTYYADSVKGRFTISRDNAKNTDYFQMNSLKPEDTAVYYCAAYTTRPYWGQGTQVTVSS | high polyreactivity |
| QVQLVESGGGLVEAGGSLRLSCAASGRTFSPNTMGWYRQAPGKEREFVAAITASGDSTYYADSVKGRFTISRDNAKNTVYLQMNSLKPEDTAVYYCATDSNWYWGFNYWGQGTQVTVSS | low polyreactivity |
